Article PMC6125409
Like-named read-outs stand apart in the source and are kept apart here. Values belong to the substance of their own block, whether it stands above or below them.

How the values were obtained:
EpCAM ECD (Homo sapiens) [1] = target: EpCAM ECD (Homo sapiens) (UniProt P16422); conditions: cited from earlier work
EpCAM ECD (Homo sapiens) [2] = target: EpCAM ECD (Homo sapiens) (UniProt P16422); conditions: cited from earlier work; remark: listed apart in the source
[3] = target: mCherry-EpFL (N-terminal fusion of mCherry to full-length EpCAM) (UniProt P16422); experiment: FRET or BRET; FLIM-FRET, donor sfGFP and acceptor mCherry both N-terminal on EpFL, co-transfected in the same cell (cis; GFPEX/CherryEX), equimolar plasmids; HEK 293 T and HCT8 #L13 cells, fixed; whole cell membrane region

Substance: EpCAM trans-tetramer (dimer-dimer) ECD (from UniProt P16422)
Kd (EpCAM ECD (Homo sapiens) [1]): 10 µM

Substance: EpCAM cis-dimer ECD (from UniProt P16422)
Kd (EpCAM ECD (Homo sapiens) [2]): 0.01 µM

average donor fluorescence lifetime [3]: 1.6 ns
Substance: sfGFP-EpFL (N-terminal fusion of sfGFP to full-length EpCAM) (from UniProt P16422 24-314) (receptor)
